This is an account of results in PMC7278359 (The Journal of Biological Chemistry, 2020).

In assay [1] the target is Nck1-SH3.1 (residues 4–59) (human, UniProt P16333 4-59). The assay can be described thus: crystal structure; Nck1-SH3.1 (4-59) with 2-fold molar excess of Ac-…-NH2; 0.1 M Bis-Tris/HCl pH 6.5, 2 M (NH4)2SO4; sitting drop, 22 °C; two complexes in the asymmetric unit (5QU2). The conditions noted are these: both partners purified.
Assay [2] has the same target. Description: crystal structure; Nck1-SH3.1 with 2-fold molar excess of Ac-…-NH2; 0.1 M BisTris/HCl pH 6.5, 2 M (NH4)2SO4; space group I212121, two complexes in the asymmetric unit. The note with it: both partners purified.

B1: CD3ε-derived peptide Ac-PPPVPNPDY-NH2 (residues 180–188) (peptide)
peptide: Ac-PPPVPNPDY-NH2
notes: also called minimal CD3ε peptide; source: synthetic peptide, from Biosynthan
Regarding B1, the binding result in assay [1] is “binds”.

B2: minimal CD3ϵ peptide Ac-PPPVPNPDY-NH2 (residues 180–188) (peptide)
peptide: Ac-PPPVPNPDY-NH2
notes: CD3ϵ residues 180–188 (PRS); MM 1109.3 Da; source: synthetic peptide (bought: Biosynthan)
For B2, the binding result in assay [2] is “binds”.
